Test results reported in doi:10.1101/060434 (bioRxiv, 2016).

Biological target: the molecule itself
Test: electron microscopy

B1: hepatitis E virus-like particle (HEV-LP) of the HEV ORF2 capsid protein, amino acids 368-606 (p239) (domain or fragment, UniProt P33426 368-606, looked up)
chain: IALTLFNLADTLLGGLPTELISSAGGQLFYSRPVVSANGEPTVKLYTSVENAQQDKGIAIPHDIDLGESRVVIQDYDNQHEQDRPTPSPAPSRPFSVLRANDVLWLSLTAAEYDQSTYGSSTGPVYVSDSVTLVNVATGAQAVARSLDWTKVTLDGRPLSTIQQYSKTFFVLPLRGKLSFWEAGTTKAGYPYNYNTTASDQLLVENAAGHRVAISTYTTSLGAGPVSISAVAVLAPHSV
  binding result: binds
